Biological target: HIV-1 BaL envelope (Env, gp120-gp41) on HIV-1 BaL pseudovirions (HIV-1 BaL, Env clone BaL.01) (UniProt Q2MKA9)
Assay: two-color fluorescence correlation spectroscopy (FCS)

Question: How did the percent of mAb virion-bound (slower diffusion coefficient) turn out when “mAb b12 (IgG), Alexa 647-labelled (antibody)” was run?
Answer: The percent of mAb virion-bound (slower diffusion coefficient) was 42%.

— publication PMC6628914
